Measured values reported in patent publication US9951335B2, “Compositions and methods for treating otitis media and other conditions with inhibitors of CYLD” (Georgia State University Research Foundation, Inc., priority 2012, dated 2018).

Key:
[1] = test system: CYLD; test: CYLD knockdown efficiency of siCYLD (immunoblotting); type: cell-based, human; conditions: a number of cell types including NHBE cells
Protocol: RNA-mediated interference for downregulating CYLD expression was carried out using pSuper-CYLD and the sequence for the siCYLD is 5′-[…]-3′ (SEQ ID NO:13). Human and mouse siRNAs for Akt and CHIP were from Dharmacon, and knockdown of Akts and CHIP, using siAkt and siCHIP, was performed with Lipofectamine 2000 (Invitrogen). ON-TARGETplus SMARTpool of siRNAs targeting human Akt1, human CHIP, mouse Akt1, and mouse Akt2 consists of four siRNAs and sequences for the siRNAs are as follows: Human siAkt1 (5′-[…]-3′ (SEQ ID NO:14), 5′-[…]-3′ (SEQ ID NO:15), 5′[…]-3′ (SEQ ID NO:16), 5′-[…]-3′ (SEQ ID NO:17)); human CHIP (5′-[…]-3′ (SEQ ID NO:18), 5′-[…]-3′ (SEQ ID NO:19), 5′-[…]-3′ (SEQ ID NO:20), 5′-[…]-3′ (SEQ ID NO:21)); mouse Akt1 (5′-[…]-3′ (SEQ ID NO:22), 5′-[…]-3′ (SEQ ID NO:23), 5′-[…]-3′ (SEQ ID NO:24), 5′-[…]-3′ (SEQ ID NO:25)); mouse Akt2 (5′-[…]-3′ (SEQ ID NO:26), 5′-[…]-3′ (SEQ ID NO:27), 5′-[…]-3′ (SEQ ID NO:28), 5′-[…]-3′ (SEQ ID NO:29)).
Western blot, immunoprecipitation and ubiquitination experiments were performed as follows. Western blots were performed using whole-cell extracts, separated on 8 or 10% SDS-PAGE gels, and transferred to polyvinylidine di& uoride membranes. […] Immunoprecipitates were then suspended in a sample buffer, separated on 8% SDS-PAGE, transferred to polyvinylidine difluoride membrane, and detected by immunoblot analysis, as described above. […]

[2] = test system: TGF-β-signalling; test: TGF-β-induced SBE-promoter activity in mouse MEF cells; type: cell-based
Protocol: The expression plasmids Flag-WT-CYLD, HA-WT-CYLD, Flag-H/N-CYLD, HA-C/S-CYLD, Flag-WT-Smad3, C/A-TβRI, and the reporter plasmids SBE-Luc, PAI-1-Luc, and NF-κB-Luc were previously described. Flag-WT-Akt1, pRK5-HA-Ub WT, pRK5-HA-Ub K63, and pRK5-HA-Ub K48 were from Addgene, and K to R mutants of Akt were generated with WT-Akt1 using QuickChange XL Site-Directed Mutagenesis kit (Stratagene). All transient transfections were carried out using TransIT-LT1 reagent (Minis) or Lipofectamine (Invitrogen) according to manufacturers' instructions.

[3] = test system: Akt; test: Akt ubiquitination in cells (immunoprecipitation, immunoblotting); type: cell-based, human; conditions: epithelial cells
Protocol: Western blot, immunoprecipitation and ubiquitination experiments were performed as follows. Western blots were performed using whole-cell extracts, separated on 8 or 10% SDS-PAGE gels, and transferred to polyvinylidine di& uoride membranes. The membrane was blocked with a solution of PBS containing 0.1% Tween 20 (PBS-T) and 5% BSA. The membrane was then incubated in a 1:2,000 dilution of a primary antibody in 5% BSA-PBS-T. After three washes in PBS-T, the membrane was incubated with 1:5,000 dilution of the corresponding secondary antibody in 3% non-fact skim milk-PBS-T. Respective proteins were visualized by using enhanced chemiluminescence detection reagents, according to the manufacturer's instructions. To conduct immunoprecipitation analysis, cell lysates were incubated with 1 μg of primary antibodies overnight, at 4° C., followed by 2-h incubation with protein A/G-agarose beads (Invitrogen). Immunoprecipitates were then suspended in a sample buffer, separated on 8% SDS-PAGE, transferred to polyvinylidine difluoride membrane, and detected by immunoblot analysis, as described above. […]

B1: siCYLD: RNA-mediated interference for downregulating CYLD expression using pSuper-CYLD, SEQ ID NO:13 (nucleic acid)
chain: GATCCCCGAGCTACTGAGGACAGAAATTCAAGAGATTTCTGTCCTCAGTAGCTCTTTTTGGAAA
modifications: expressed from pSuper vector
endogenous CYLD protein expression [1]: efficiently reduced
SBE-Luc activity in the absence of Smad3 ([2]; Smad3-deficient MEF cells): did not enhance
SBE-Luc activity in cells reconstituted with WT-Smad3 ([2]; Smad3-deficient MEF cells + WT-Smad3): markedly enhanced
S. pneumoniae-induced Akt ubiquitination [3]: markedly enhanced
